In doi:10.1101/2022.07.21.500954 (bioRxiv, 2022):

Target: the molecule itself
Experiment: SEC-MALS

B1: cerato-platanin-like protein 1 (Cpl1) from Ustilago maydis, tag-free recombinant protein (natural protein, UniProt A0A0D1E4Q7 22-240, looked up)
chain: AVDITFTSGKFNRRDDSTVVKQKNPEFGMNLANQYIIRKGAGLPPAKDVKETYPECKWRHYAGSFGWLDDYNVQCYLSPSYKFHAHSIAKAFKAEPSTKAGACFDTANTDQFPEGVPKYSIGVPYLYMNNLYDRRCKVRAMVKIPKTDEHEEKWVQAWVIDHNLGNWDKDGKENDAYPKDGVLIDTNMYEQFFDKNKKVPDYSKTVPVEWFFLDINTVG
Q: How did the “stoichiometry N” value turn out when B1 was run?
A: Its value is 2.
